What was measured:
human ROR1 (human) = human ROR1 (human) (UniProt Q01973); assay: cell-based or functional assay
human SLAMF7 (human) = human SLAMF7 (human) (UniProt Q9NQ25); assay: cell-based or functional assay

| IFN-γ in supernatant (ELISA), CD8+ CAR-T cells co-cultured with RCH-ACV, untreated (human ROR1 (human)) [pg/mL] | proliferation index (CFSE, 72 h), CD8+ CAR-T cells co-cultured with RCH-ACV, untreated (proliferation index) (human ROR1 (human)) | specific lysis of K562/ROR1 target cells by CD8+ CAR-T cells, no dasatinib, t=10 h (human ROR1 (human)) [%] | specific lysis of K562/ROR1 target cells by CD8+ CAR-T cells, no dasatinib, up to t=5 h (human ROR1 (human)) [%] | specific lysis of ROR1+ RCH-ACV target cells by CD8+ CAR-T cells, untreated, t=8 h (human ROR1 (human)) [%] | specific lysis of K562/SLAMF7 target cells by CD8+ CAR-T cells, no dasatinib, t=6 h (human SLAMF7 (human)) [%] | specific lysis of K562/SLAMF7 target cells by CD8+ CAR-T cells, no dasatinib, t=12 h (human SLAMF7 (human)) [%] | Binder |
| --- | --- | --- | --- | --- | --- | --- | --- |
| 1310 | 2.84 | 94 | 73 | > 90 | – | – | ROR1 CAR with 4-1BB costimulatory domain (protein) QVQLVESGGALVQPGGSLTLSCKASGFDFSAYYMSWVRQAPGKGLEWIATIYPSSGKTYYAASVQGRFTISADNAKNTVYLQMNSLTAADTATYFCARDSYADDGALFNIWGQGTLVTVSSGGGGSGGGGSGGGGSQLVLTQSPSVSAALGSSAKITCTLSSAHKTDTIDWYQQLAGQAPRYLMYVQSDGSYEKRSGVPDRFSGSSSGADRYLIISSVQADDEADYYCGADYIGGYVFGGGTQLTVGESKYGPPCPPCPMFWVLVVVGGVLACYSLLVTVAFIIFWVKRGRKKLLYIFKQPFMRPVQTTQEEDGCSCRFPEEEEGGCELRVKFSRSADAPAYQQGQNQLYNELNLGRREEYDVLDKRRGRDPEMGGKPRRKNPQEGLYNELQKDKMAEAYSEIGMKGERRRGKGHDGLYQGLSTATKDTYDALHMQALPPR |
| – | – | – | – | – | 63 | 83 | SLAMF7 CAR with 4-1BB costimulatory domain (protein) EVQLVESGGGLVQPGGSLRLSCAASGFDFSRYWMSWVRQAPGKGLEWIGEINPDSSTINYAPSLKDKFIISRDNAKNSLYLQMNSLRAEDTAVYYCARPDGNYWYFDVWGQGTLVTVSSGGGGSGGGGSGGGGSDIQMTQSPSSLSASVGDRVTITCKASQDVGIAVAWYQQKPGKVPKLLIYWASTRHTGVPDRFSGSGSGTDFTLTISSLQPEDVATYYCQQYSSYPYTFGQGTKVEIKESKYGPPCPPCPAPPVAGPSVFLFPPKPKDTLMISRTPEVTCVVVDVSQEDPEVQFNWYVDGVEVHNAKTKPREEQFQSTYRVVSVLTVLHQDWLNGKEYKCKVSNKGLPSSIEKTISKAKGQPREPQVYTLPPSQEEMTKNQVSLTCLVKGFYPSDIAVEWESNGQPENNYKTTPPVLDSDGSFFLYSRLTVDKSRWQEGNVFSCSVMHEALHNHYTQKSLSLSLGKMFWVLVVVGGVLACYSLLVTVAFIIFWVKRGRKKLLYIFKQPFMRPVQTTQEEDGCSCRFPEEEEGGCELRVKFSRSADAPAYQQGQNQLYNELNLGRREEYDVLDKRRGRDPEMGGKPRRKNPQEGLYNELQKDKMAEAYSEIGMKGERRRGKGHDGLYQGLSTATKDTYDALHMQALPPR |
| – | – | – | – | – | 67 | 85 | SLAMF7 CAR with CD28 costimulatory domain (protein) EVQLVESGGGLVQPGGSLRLSCAASGFDFSRYWMSWVRQAPGKGLEWIGEINPDSSTINYAPSLKDKFIISRDNAKNSLYLQMNSLRAEDTAVYYCARPDGNYWYFDVWGQGTLVTVSSGGGGSGGGGSGGGGSDIQMTQSPSSLSASVGDRVTITCKASQDVGIAVAWYQQKPGKVPKLLIYWASTRHTGVPDRFSGSGSGTDFTLTISSLQPEDVATYYCQQYSSYPYTFGQGTKVEIKESKYGPPCPPCPAPPVAGPSVFLFPPKPKDTLMISRTPEVTCVVVDVSQEDPEVQFNWYVDGVEVHNAKTKPREEQFQSTYRVVSVLTVLHQDWLNGKEYKCKVSNKGLPSSIEKTISKAKGQPREPQVYTLPPSQEEMTKNQVSLTCLVKGFYPSDIAVEWESNGQPENNYKTTPPVLDSDGSFFLYSRLTVDKSRWQEGNVFSCSVMHEALHNHYTQKSLSLSLGKMFWVLVVVGGVLACYSLLVTVAFIIFWVRSKRSRGGHSDYMNMTPRRPGPTRKHYQPYAPPRDFAAYRSRVKFSRSADAPAYQQGQNQLYNELNLGRREEYDVLDKRRGRDPEMGGKPRRKNPQEGLYNELQKDKMAEAYSEIGMKGERRRGKGHDGLYQGLSTATKDTYDALHMQALPPR |

From patent US20210169880A1
